For data set [1], the target named is T1, ChroM1 DNA-binding domain recombinant protein (rP, residues 2333-2480) (Homo sapiens, UniProt Q3L8U1 SEQ:2333-2480).
T1 sequence: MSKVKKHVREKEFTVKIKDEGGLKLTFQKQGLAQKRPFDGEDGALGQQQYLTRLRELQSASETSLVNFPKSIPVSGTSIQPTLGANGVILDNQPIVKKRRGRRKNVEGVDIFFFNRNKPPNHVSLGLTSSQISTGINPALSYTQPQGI
The data set is described as follows: EMSA; 1-3 ug rP; binding increases with protein; abolished by 100x cold oligo; 26 mM Hepes pH 7.9, 2 mM MgCl2, 40 mM KCl, RT; strandedness of probe not stated. The note with it: label: 32P. On the procedure: Electrophoretic mobility shift assay (EMSA): EMSA was performed between recombinant protein (rP) containing the DNA binding domain (residues 2333-2480 from sequence of ChroM1) and ³²P-labeled 32-mer oligonucleotide containing 24 A·T nucleotides, […] (SEQ ID NO:14). 1-3 μg of rP and 100,000 cpm of ³²P-labeled oligonucleotides were used for the binding reaction in the presence or absence of 100 fold excess cold oligonucleotide. The reaction was carried out in 20 μl of binding buffer (26 mM Hepes, pH 7.9, 2 mM MgCl₂, 40 mM KC1, 1 mM dithiothreitol and 0.25% BSA). The samples were incubated for 15 min at room temperature prior to loading in 5% native polyacrylamide gel in 0.25 Tris borate-EDTA (TBE). The gel was run for 40 min at RT and in TBE buffer. The gels were then dried and autoradiographed.

The target of data set [2] is T1, ChroM1 DNA-binding domain recombinant …. Briefly: EMSA; binding reduced by distamycin A.

Here are results for two molecules from patent publication US20050250717, “Chromatin remodeling protein as a marker expressed by stromal progenitor cells” (Ramot AT Tel Aviv University Ltd., published 2005).

B1: A/T-rich 32-mer oligonucleotide (dsDNA)
DNA 1: GATCCATATATATATATATATATATATATGCA
DNA 2: TGCATATATATATATATATATATATATGGATC
For B1, in data set [1], the binding result is recorded as “binds”.

B2: BMP4 distal promoter PCR fragment (145 bp) (dsDNA)
DNA 1: GCTAAAGGAGCACAATGCCTGATGCTGCAGGAGAAACATTAGGTAACTATTTAATGGAGTTTTAATTTTCTGTTATTATTTTTAATAATTAATTGTGATTTTGACTATTTGGAAGCTACAGGTATATTTTGTCCTCCTTTTGGGG
DNA 2: CCCCAAAAGGAGGACAAAATATACCTGTAGCTTCCAAATAGTCAAAATCACAATTAATTATTAAAAATAATAACAGAAAATTAAAACTCCATTAAATAGTTACCTAATGTTTCTCCTGCAGCATCAGGCATTGTGCTCCTTTAGC
As for B2, the binding result in data set [2] is listed as “binds”.
